The text below walks through data of patent publication US20200223919A1 (CYTOMX THERAPEUTICS, published 2020).

In one experiment the target is T1, human CD166 (human, UniProt Q13740 28-583).
T1 construct: whole, on cells; Endogenous protein detected by IHC on fixed, paraffin-embedded cells and tissues, and by Western blot of cell lysates; also called hCD166
T1 sequence (looked up): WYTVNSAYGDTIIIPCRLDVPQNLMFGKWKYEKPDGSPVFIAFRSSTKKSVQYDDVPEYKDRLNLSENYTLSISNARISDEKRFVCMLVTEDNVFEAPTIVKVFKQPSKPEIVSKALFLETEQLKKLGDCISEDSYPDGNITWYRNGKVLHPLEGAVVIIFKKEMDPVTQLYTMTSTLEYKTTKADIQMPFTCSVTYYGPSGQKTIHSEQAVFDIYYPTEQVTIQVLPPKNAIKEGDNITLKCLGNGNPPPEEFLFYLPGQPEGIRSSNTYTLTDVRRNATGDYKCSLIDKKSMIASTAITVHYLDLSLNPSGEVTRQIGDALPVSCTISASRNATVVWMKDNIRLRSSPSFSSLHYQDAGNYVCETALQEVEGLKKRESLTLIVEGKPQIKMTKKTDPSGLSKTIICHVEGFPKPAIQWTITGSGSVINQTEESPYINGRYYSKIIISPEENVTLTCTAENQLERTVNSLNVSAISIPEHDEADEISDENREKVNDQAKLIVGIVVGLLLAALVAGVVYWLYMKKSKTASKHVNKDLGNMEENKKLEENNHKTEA
Nature of the experiment: IHC on FFPE HCC1806 cells, supernatant at 10 µg/mL IgG. Here is the method: As shown in the exemplary IHC images of FIGS. 1-4, formalin-fixed paraffin-embedded (FFPE) human tumor cell lines (triple-negative breast cancer-derived cell line HCC1806 and breast ductal carcinoma-derived cell line BT-20) were prepared and blocked using standard protocols, and then incubated with the indicated hybridoma supernatents (Ab3, Ab6, Ab2, Ab1, Ab5, Ab7, Ab4, or Ab8 of the present disclosure) at 10 μg/mL IgG for 60 minutes are room temperature. As a control, FFPE samples were also incubated with ABCAM® EPR2759(2)/ab109215 anti-hCD166 rabbit monoclonal antibody at 5 μg/mL. Detection of bound primary antibody was performed by subsequent incubation with biotinylated-conjugated anti-mouse IgG antibody (for the hybridoma supernatents) or biotinylated-conjugated anti-rabbit IgG antibody (for the ABCAM® antibody), followed by addition of avidin-horseradish peroxidase (HRP) (Vectastain Elite ABC HRP Kit, Vector Laboratories) to form the avidin-biotin-HRP complex, followed by addition of a 3,3′-diaminobenzidine substrate (DAB Plus, Dako). Tissues were counterstained with Hematoxylin (Fisher Scientific).

In experiment [1] the target is T2, Peptide A, amino acid residues 550 to 569 of human CD166 (human).
T2 construct: Coated at 100 or 200 ng/well with 0.9 mg/mL BSA
T2 peptide: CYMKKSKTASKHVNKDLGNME
Nature of the experiment: ELISA, 200 ng/well peptide with 0.9 mg/mL BSA; expanded hybridoma clone supernatant. The source says: (§1) B cells from each of Mouse #2 and Mouse #3 were fused in a combined manner to generate hybridomas in accordance with methods known in the art. Hybridomas were cloned and ˜1100 clone supernatants were screened against the each of the human CD166-derived peptides using a Direct EIA format using a goat anti-IgG gamma chain-specific secondary antibody coupled to horseradish peroxidase (HRP) (Millipore, Cat. No. AP503P. Following the initial screen, 136 clones were selected for a further confirmatory screen, of which forty (40) were selected for expansion. The expanded clones were assayed for mouse IgG levels using anti-mouse sensors in an Octet RED96 system (Pall ForteBio) and ELISA (200 ng/well of peptides A or B with 0.9 mg/mL BSA). Candidates included Ab1 (also referred to herein as “Example anti-CD166 ICD antibody 1”), Ab2 (also referred to herein as “Example anti-CD166 ICD antibody 2”), Ab3, Ab4, Ab5, Ab6, Ab7, and Ab8. Five candidates (Ab1, Ab2, Ab3, Ab4, and Ab5) shown below in Table 4 were selected.

The target in experiment [2] is T3, Peptide B, amino acid residues 565 to 583 of human CD166 (human).
T3 construct: Coated at 100 or 200 ng/well with 0.9 mg/mL BSA
T3 peptide: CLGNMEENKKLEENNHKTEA
Described as above.
Source text: as §1

B1: Ab1 anti-hCD166 mouse monoclonal antibody (antibody, mouse IgG1, kappa)
heavy: EVQLQQSGAELVKPGASVKLSCTASGFNIKDYYMHWVKQRTEQGLEWIGKIDPENGETKYAPKFQGKATITADTSSSTAYLQLSSLTSEDTAVYYCAREGFMDYWGQGASVTVSSAKTTPPSVYPLAPGSAAQTNSMVTLGCLVKGYFPEPVTVTWNSGSLSSGVHTFPAVLQSDLYTLSSSVTVPSSTWPSQTVTCNVAHPASSTKVDKKIVPRDCGCKPCICTVPEVSSVFIFPPKPKDVLTITLTPKVTCVVVDISKDDPEVQFSWFVDDVEVHTAQTQPREEQFNSTFRSVSELPIMHQDWLNGKEFKCRVNSAAFPAPIEKTISKTKGRPKAPQVYTIPPPKEQMAKDKVSLTCMITDFFPEDITVEWQWNGQPAENYKNTQPIMDTDGSYFVYSKLNVQKSNWEAGNTFTCSVLHEGLHNHHTEKSLSHSPGK
light: DVVMTQTPLSLPVSLGDQASISCRSSQSLVHSNGNTYLHWYLQKPGQSPKLLIYKVSNRFSGVPDRFSGSGSGTDFTLKISRVEAEDLGVYFCSQSTFVPLTFGAGTKLELKRADAAPTVSIFPPSSEQLTSGGASVVCFLNNFYPKDINVKWKIDGSERQNGVLNSWTDQDSKDSTYSMSSTLTLTKDEYERHNSYTCEATHKTSTSPIVKSFNRNEC
notes: also called recombinant Ab1
As for B1, the binding result with human CD166 is given as “binds”. Further, the A620 in experiment [1] stood at 0.162 A620; in experiment [2] it was 3.23 A620.

B2: Ab2 anti-hCD166 mouse monoclonal antibody (antibody, mouse IgG1, kappa)
heavy: EVQLQQSGAELVKPGASVKLSCTASGFNIKDYYMHWVRQRTEQGLEWIGKIDPEDGETKYAPKFQGKATITADTSSNTAYLQLSSLTSEDTAVYYCAREGFMDYWGQGTSVTVSSAKTTPPSVYPLAPGSAAQTNSMVTLGCLVKGYFPEPVTVTWNSGSLSSGVHTFPAVLQSDLYTLSSSVTVPSSTWPSQTVTCNVAHPASSTKVDKKIVPRDCGCKPCICTVPEVSSVFIFPPKPKDVLTITLTPKVTCVVVDISKDDPEVQFSWFVDDVEVHTAQTQPREEQFNSTFRSVSELPIMHQDWLNGKEFKCRVNSAAFPAPIEKTISKTKGRPKAPQVYTIPPPKEQMAKDKVSLTCMITDFFPEDITVEWQWNGQPAENYKNTQPIMDTDGSYFVYSKLNVQKSNWEAGNTFTCSVLHEGLHNHHTEKSLSHSPGK
light: DNVMTQTPLSLSVSLGDQASISCRSSQSLVHSNGNTYLHWYLQKPGQSPKLLIYKVSNRFSGVPDRFSGSGSGTDFTLKISRVEAEDLGVYFCSQSTHVPLTFGAGTKLELKRADAAPTVSIFPPSSEQLTSGGASVVCFLNNFYPKDINVKWKIDGSERQNGVLNSWTDQDSKDSTYSMSSTLTLTKDEYERHNSYTCEATHKTSTSPIVKSFNRNEC
notes: Tested as hybridoma supernatant and as antibody purified from hybridoma supernatant
On to B2, for which, in the experiment with human CD166, the binding result was “binds”. In addition, the figures for the A620 in experiment [1] and in experiment [2] were 0.067 A620 and 3.02 A620, respectively.
